From PMC6203815 (Nature Communications, 2018) come the findings set out here.

Substitutions are numbered along the chain they refer to.

Sequences and labels used below:
B1: HC2-LC2 (antibody, V domains shown)
VH: EVQLVESGGGLVQPGGSLRLSCAASGFTFNNYWMSWVRQAPGKGLEWVASISNIGGTIYYPDSVKGRFTISRDSAKNSLYLQMNSLRAEDTAVYYCTRDLRMSDYFDYWGQGTLVTVSS
VL: QFVLTQPHSVSESPGKTVTISCKRSTGNIGSNYVSWYQQRPGSSPTTVIYRDDQRPSGVPDRFSGSIDRSSNSASLTISGLKTEDEADYYCHSYSTGMYIFGGGTKLTVL
B2: HC1-LC1 (antibody, V domains shown)
VH: B1 VH with S74N
VL: B1 VL with Q1N, V3M, K23T
B3: HC1-LC3 (antibody, V domains shown)
VH: B1 VH with S74N
VL: B1 VL with V3M, K23T, S44A, G80R
B4: HC2-LC3 (antibody, V domains shown)
VH: B1 VH
VL: B1 VL with V3M, K23T, S44A, G80R
B5: HC1-LC2 (antibody, V domains shown)
VH: B1 VH with S74N
VL: B1 VL

This experiment concerns the target Pfs48/45 6C domain (NF54) (Plasmodium falciparum NF54, UniProt V5NSK3).
Regarding B1, the binding result is recorded as “binds”. With B2, the binding result was “binds”. The value for B3 was “binds”. Regarding B4, the binding result is listed as “binds”.

In the case of B5, the binding result was “binds”.
